Experiments:
[1] = molecular target: wheat germ rhodamine-calmodulin (r-CAM) (UniProt P04464); assay: single-molecule two-colour TIRFM, immobilised holoenzyme; conditions: reference: T287A holoenzyme (T306, T307 intact); sites T306,T307
[2] = molecular target: the molecule itself; assay: single-molecule stepwise photobleaching of Venus (TIRF microscopy); V-CaMKII held on a coverslip by GFP antibody; photobleaching steps in the Venus channel counted with a step-finder algorithm to give subunit stoichiometry (S_CaMKII)

other: τ+/τ− ratio [1] | Molecule | binding result [2]
stronger; reference 1.76 | CaMKIIβ (Venus-CaMKIIβ) (from UniProt P28652) T287A/T306A/T307A holoenzyme | 
 | Venus-CaMKIIβ T287.306-307A holoenzyme (enzyme, mouse, UniProt P28652 1-542, looked up, CaMKII β isoform with T to A substitutions at T287, T306 and T307; also called T287.T306.307A; phosphorylation-defective holoenzyme; source: E. coli BL21/Rosetta or BL21/C41, cotransformed with a protein phosphatase plasmid; copies: 14) MATTVTCTRFTDEYQLYEDIGKGAFSVVRRCVKLCTGHEYAAKIINTKKLSARDHQKLEREARICRLLKHSNIVRLHDSISEEGFHYLVFDLVTGGELFEDIVAREYYSEADASHCIQQILEAVLHCHQMGVVHRDLKPENLLLASKCKGAAVKLADFGLAIEVQGDQQAWFGFAGTPGYLSPEVLRKEAYGKPVDIWACGVILYILLVGYPPFWDEDQHKLYQQIKAGAYDFPSPEWDTVTPEAKNLINQMLTINPAKRITAHEALKHPWVCQRSTVASMMHRQEAVECLKKFNARRKLKGAILAAMLATRNFSVGRQTTAPATMSTAASGTTMGLVEQAKSLLNKKADGVKPQTNSTKNSSAITSPKGSLPPAALEPQTTVIHNPVDGIKESSDSTNTTIEDEDAKARKQEIIKTTEQLIEAVNNGDFEAYAKICDPGLTSFEPEALGNLVEGMDFHRFYFENLLAKNSKPIHTTILNPHVHVIGEDAACIAYIRLTQYIDGQGRPRTSQSEETRVWHRRDGKWQNVHFHCSGAPVAPLQ | binds

— publication PMC11630639, “Real-time single-molecule imaging of CaMKII-calmodulin interactions” (Biophysical Journal, 2024)
